Patent CN110294802A

Target: HAdV7灭活病毒 (human/CHN/GZ6965/2001)

B1: 10G12抗体 (antibody, V domains shown)
VH: QVQLKQPGAELVRPGASVKLSCKASGYSFTNYWMHWMKQRPGQGLEWIGMIDPSDSETRLNQKFKDKATLTVDKSSSIAYMQLSSPTSEDSAVYYCARDRYDGGAWFDYWSQGTLVT
VL: DIVMTQTPLSLPVSLGDQASISCRSSQSLVHSNGNTYLHWYLQKPGQSPKLLIYKVSNRFSGVPDRFSVSGSGTDFTLKISRVEAEDLGVYFCSQSTHVPPTFGGGTKLEIK
For B1, the EC50 was 0.14 nM.
